Data on seven molecules can be found in patent US20040202659A1 (ASAT AG APPLIED SCIENCE AND TECHNOLOGY, published 2004).

The target in one experiment is T1, PDG-A.
T1 construct: lambda light chain; also called Group A phab clones; Group A autoantibody phab clones
The experiment in a line: specificity assay.

Experiment [1] deals with T2, PDG-B.
T2 construct: human anti-GPIIb/IIIa Fab, as phab or as biotinylated recombinant Fab; lambda light chain; also called Group B phab clones; Group B antibody phab clones
Kind of experiment: specificity assay.

The target of experiment [2] is T2, PDG-B. Kind of experiment: flow cytometry, biotinylated PDG-B on platelets with AI-B phab. (In general: Flow cytometry measures light scatter and fluorescence of single cells or particles in a stream.)
Protocol: This was determined by means of flow-cytometric analysis. […] 10,000 events were counted in a FACScan appliance and the mean value of the fluorescence (±SD) was recorded.

T1 sequence (VH, as listed by the source, chain 1 of 2): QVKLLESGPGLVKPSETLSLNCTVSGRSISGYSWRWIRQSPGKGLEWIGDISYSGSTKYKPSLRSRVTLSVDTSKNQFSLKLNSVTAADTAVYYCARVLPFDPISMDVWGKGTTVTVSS
T1 sequence (VL, as listed by the source, chain 2 of 2): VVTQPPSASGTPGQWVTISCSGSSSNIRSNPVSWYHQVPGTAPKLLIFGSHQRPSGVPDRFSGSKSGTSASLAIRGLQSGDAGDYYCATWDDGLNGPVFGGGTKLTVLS

B1: AI-B14 (Fab, V domains shown)
VH: QVKLLESGGGVVQPGRSLRLSCAASGFTFSDYGMHWVRQAPGKGLEWVAAISYDGSNKYYADSVKGRFSISRDNSNNTLYLQMSTLRAEDTAVYFCARDSETAIAAAGRFDIWGQGTMVTVSS
notes: phab; also called A1-B14; AI-14
Consider B1, for which the binding result in the experiment with PDG-A is “no binding”; with PDG-B [1], “binds”.

B2: AI-B17 (Fab, V domains shown)
VH: QVKLLESGGGVVQPGRSLRLSCAASGFTFSDYGMHWVRQAPGKGLEWVAAISYDGSNKYYADSVKGRFSISRDNSNNTLYLQMSTLRAEDTAVYFCARDSETAIAAAGRFDIWGQGTMVTVSS
notes: phab; also called A1-B17
B2: the figures for the binding result with PDG-A and with PDG-B [1] were “no binding” and “binds”, respectively.

B3: AI-B24 (Fab, V domains shown)
VH: QVKLLESGGGLVQPGGSLRLSCSASGFTFNKYAIHWVRQAPGKGLEYVSAISSNGGNTYYADSVKGRFTISRDNSKNTVYLQMSSLRAEDTAVYYCVRGSGSYLGYYFDYWGQGTLVTVSS
VL: VVTQPPSVSVAPRQTATITCGGYKIGSKSVHWYQQKPGQAPVLVVYEDSYRPSEIPERFSGSNSGNMATLTITGVEAGDEADYYCQVWDNTNDQTIFGGGTKLTVLR
notes: phab; also called A1-B24
In the case of B3, the “inhibition of the binding of PDG-B to platelets” value (“inhibition” below) with PDG-B [2] is more than 60%. Moreover, the binding result with PDG-A was “no binding”.

B4: AI-B38 (Fab, V domains shown)
VH: QVKLLESGAEVKKPGASVKVSCKVSGYTLTELSMHWVRQAPGKGLEWMGGFDPEDGETIYAQKFQGRVTMTEDTSTDTAYMELSSLRSEDTAVYYCETGLRSYNYGRNLDYWGQGTLVTVSS
notes: phab; also called A1-B38
Take B4: the “inhibition” value with PDG-B [2] is more than 60%. The binding result with PDG-A was “no binding”.

B5: AI-B18 (Fab, V domains shown)
VH: QVKLLESGAEVKKPGSSVMVSCKASGGTFSSHTISWVRQAPGQGLEWMGGITPIFGTVNYAQKFQGRVTITADEPTSTAYMELRSLTSDDSGIYYCAREDGTTVPSQPLEFWGQGTRVTVSS
notes: phab; also called A1-B18
With B5, the “inhibition” value with PDG-B [2] is more than 60%. Besides, the binding result in the experiment with PDG-A is reported as “no binding”.

B6: AI-B40 (Fab, V domains shown)
VH: QVKLLESGAEVKKPGSSVMVSCKASGGTFSSHTISWVRQAPGQGLEWMGGITPIFGTVNYAQKFQGRVTITADEPTSTAYMELRSLTSDDSGIYYCAREDGTTVPSQPLEFWGQGTRVTVSS
notes: phab; also called A1-B40
Turning to B6, the binding result in the experiment with PDG-A was “no binding”.

B7: AI-B34 (Fab, V domains shown)
VH: QVKLLESGAEVKKPGSSVMVSCKASGGTFSSHTISWVRQAPGQGLEWMGGITPIFGTVNYAQKFQGRVTITADEPTSTAYMELRSLTSDDSGIYYCAREDGTTVPSQPLEFWGQGTRVTVSS
notes: phab; also called A1-B34
Turning to B7, the binding result with PDG-A is “no binding”.
